Test results published in patent US20220315655A1.

Target: recombinant cynomolgus monkey PD-L1 soluble protein (cynomolgus monkey) (UniProt G7PSE7)
Assay: sandwich ELISA, antibody captured on anti-human Fc, biotinylated rec. cynomolgus PD-L1 titrated (x axis), fluorescence

Avelumab (antibody), sequence (VH): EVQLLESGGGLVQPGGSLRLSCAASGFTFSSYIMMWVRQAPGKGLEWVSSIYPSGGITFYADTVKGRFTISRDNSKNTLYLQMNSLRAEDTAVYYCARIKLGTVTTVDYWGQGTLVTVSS
Avelumab (antibody), sequence (VL): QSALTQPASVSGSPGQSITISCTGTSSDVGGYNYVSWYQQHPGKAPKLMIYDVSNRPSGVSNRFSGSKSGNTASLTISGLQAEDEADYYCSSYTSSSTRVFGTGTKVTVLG
recombinant cynomolgus monkey PD-L1 soluble protein (cynomolgus monkey), sequence (G7PSE7 entry or part of it): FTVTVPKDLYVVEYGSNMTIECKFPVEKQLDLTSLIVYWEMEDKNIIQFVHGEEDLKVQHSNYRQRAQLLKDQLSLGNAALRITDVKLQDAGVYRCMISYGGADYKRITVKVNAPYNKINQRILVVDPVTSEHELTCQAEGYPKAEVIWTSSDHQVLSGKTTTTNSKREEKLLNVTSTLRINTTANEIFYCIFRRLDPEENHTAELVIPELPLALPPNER

## Avelumab (antibody)
  EC50 (read off the curve): 0.05 nM
